Data set [1] concerns the target HuR (ELAV-like protein 1) (UniProt P70372 1-326). Kind of data set: EMSA; HuR alone; 100 mM Tris-HCl pH 7.5, 7.5 mM KCl, 25 mM MgCl2, 375 mM NaCl, 12.5% glycerol, 5 mM DTT, 30 C 30 min (as printed, possibly 5x buffer); 6% native PAGE at 4 C. The conditions noted are these: protein: recombinant.
Data set [2] has as its target HuR (ELAV-like protein 1);Msi2 (Musashi 2) (mouse?;mouse?, UniProt P70372;Q920Q6 1-326;1-346, |). The data set can be described thus: EMSA; HuR and Msi2 together, strong cooperative binding; 100 mM Tris-HCl pH 7.5, 7.5 mM KCl, 25 mM MgCl2, 375 mM NaCl, 12.5% glycerol, 5 mM DTT, 30 C 30 min (as printed, possibly 5x buffer); 6% native PAGE at 4 C. As to conditions: protein: recombinant;recombinant; tags:
Background: In EMSA bound probe runs differently from free probe, usually more slowly.

We go through one molecule from PMC8818652, “Msi2‐mediated MiR7a‐1 processing repression promotes myogenesis”.

HuR (ELAV-like protein 1), sequence (P70372 whole entry): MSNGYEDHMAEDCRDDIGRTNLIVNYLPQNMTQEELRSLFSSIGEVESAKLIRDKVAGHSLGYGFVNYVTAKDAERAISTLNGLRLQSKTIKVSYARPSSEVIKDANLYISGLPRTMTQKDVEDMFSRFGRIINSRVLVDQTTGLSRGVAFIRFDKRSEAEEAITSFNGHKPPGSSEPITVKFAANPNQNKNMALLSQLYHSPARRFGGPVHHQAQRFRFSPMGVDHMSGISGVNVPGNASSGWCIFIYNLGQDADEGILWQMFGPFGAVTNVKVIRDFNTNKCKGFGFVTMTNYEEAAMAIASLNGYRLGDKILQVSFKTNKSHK
HuR (ELAV-like protein 1);Msi2 (Musashi 2), sequence (P70372 whole entry, chain 1 of 2): as the sequence (P70372 whole entry) above
HuR (ELAV-like protein 1);Msi2 (Musashi 2), sequence (Q920Q6 whole entry, chain 2 of 2): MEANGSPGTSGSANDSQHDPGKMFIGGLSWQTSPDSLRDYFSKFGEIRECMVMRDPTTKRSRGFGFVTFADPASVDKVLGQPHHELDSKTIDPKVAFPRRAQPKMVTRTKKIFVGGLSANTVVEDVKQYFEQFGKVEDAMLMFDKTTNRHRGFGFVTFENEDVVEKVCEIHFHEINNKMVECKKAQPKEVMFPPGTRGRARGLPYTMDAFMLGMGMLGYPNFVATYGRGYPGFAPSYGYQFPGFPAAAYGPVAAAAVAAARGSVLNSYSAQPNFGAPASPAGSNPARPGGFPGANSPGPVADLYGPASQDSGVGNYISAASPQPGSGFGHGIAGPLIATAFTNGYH

With UAAUUCGUACUUUUUUUUUCUUUUCUUUUAUAGUGUGAA (ssRNA) [WT Flanking probe], the binding result in data set [1] and in data set [2] was “binds” each time.
